# T1: Human KLRG1 (human, UniProt Q96E93 1-195)
# T1 construct: also called hKLRG1
# T1 sequence: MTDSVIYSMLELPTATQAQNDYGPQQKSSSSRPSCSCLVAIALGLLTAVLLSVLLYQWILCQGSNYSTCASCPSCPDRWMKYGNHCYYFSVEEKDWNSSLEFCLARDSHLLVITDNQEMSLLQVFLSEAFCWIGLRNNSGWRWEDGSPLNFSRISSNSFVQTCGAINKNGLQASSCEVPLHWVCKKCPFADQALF
# T2: Human Clec12B (human, UniProt Q2HXU8 1-276)
# T2 construct: also called hClec12B
# T2 sequence: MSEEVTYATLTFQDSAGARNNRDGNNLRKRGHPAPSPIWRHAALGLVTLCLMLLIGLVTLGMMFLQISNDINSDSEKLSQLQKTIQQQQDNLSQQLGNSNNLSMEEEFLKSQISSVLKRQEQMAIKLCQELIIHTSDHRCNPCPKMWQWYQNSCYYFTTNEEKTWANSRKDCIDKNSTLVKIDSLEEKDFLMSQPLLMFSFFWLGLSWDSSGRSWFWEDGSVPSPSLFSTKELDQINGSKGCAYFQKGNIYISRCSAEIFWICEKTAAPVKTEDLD
# T3: Human Clec4E (human, UniProt Q9ULY5 1-219)
# T3 construct: also called hClec4E
# T3 sequence: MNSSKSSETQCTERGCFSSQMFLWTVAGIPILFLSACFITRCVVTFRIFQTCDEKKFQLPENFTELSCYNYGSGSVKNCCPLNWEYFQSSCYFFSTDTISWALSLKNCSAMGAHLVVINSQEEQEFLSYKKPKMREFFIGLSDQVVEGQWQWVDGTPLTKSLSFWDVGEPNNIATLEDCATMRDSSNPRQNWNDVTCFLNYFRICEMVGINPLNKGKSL
# T4: Human CD209 (human, UniProt Q9NNX6 1-404)
# T4 construct: also called hCD209
# T4 sequence: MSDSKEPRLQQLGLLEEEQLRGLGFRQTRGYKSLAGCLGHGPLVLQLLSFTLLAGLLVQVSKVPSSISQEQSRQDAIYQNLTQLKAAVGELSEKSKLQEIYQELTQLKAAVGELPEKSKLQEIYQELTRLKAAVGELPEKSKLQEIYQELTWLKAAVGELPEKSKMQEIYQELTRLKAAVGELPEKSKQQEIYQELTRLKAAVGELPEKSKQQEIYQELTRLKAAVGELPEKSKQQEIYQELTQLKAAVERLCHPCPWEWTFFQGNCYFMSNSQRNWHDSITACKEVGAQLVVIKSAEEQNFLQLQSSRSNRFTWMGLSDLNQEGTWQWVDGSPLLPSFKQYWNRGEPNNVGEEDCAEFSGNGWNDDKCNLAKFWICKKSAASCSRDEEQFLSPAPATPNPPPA
# T5: Human KLRF2 (human, UniProt D3W0D1 1-207)
# T5 construct: also called hKLRF2
# T5 sequence: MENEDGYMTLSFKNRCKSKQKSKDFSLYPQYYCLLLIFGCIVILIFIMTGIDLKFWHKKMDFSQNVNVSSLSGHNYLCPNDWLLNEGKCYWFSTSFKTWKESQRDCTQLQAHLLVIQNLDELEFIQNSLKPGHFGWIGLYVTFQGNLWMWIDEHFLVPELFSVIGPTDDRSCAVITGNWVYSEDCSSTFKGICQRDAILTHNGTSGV
# T6: cynomolgus CD161 (cynomolgus)
# T6 construct: UniProt A0A2K5WYI1; also called cynoCD161
# T6 chain: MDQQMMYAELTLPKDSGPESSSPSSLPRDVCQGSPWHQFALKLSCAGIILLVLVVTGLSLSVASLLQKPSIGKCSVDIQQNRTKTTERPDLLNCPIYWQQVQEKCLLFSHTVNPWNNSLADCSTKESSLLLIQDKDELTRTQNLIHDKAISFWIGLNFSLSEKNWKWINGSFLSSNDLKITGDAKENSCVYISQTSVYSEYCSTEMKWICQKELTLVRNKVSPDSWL
# B1: anti-CD161 KW17 (antibody, V domains shown)
# VH: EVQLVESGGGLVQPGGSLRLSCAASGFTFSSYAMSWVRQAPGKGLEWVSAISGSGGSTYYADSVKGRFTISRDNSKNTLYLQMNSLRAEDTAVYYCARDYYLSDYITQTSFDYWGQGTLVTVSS
# VL: QSVLTQPPSVSGAPGQRVTISCTGSSSNIGAGYDVHWYQQLPGTAPKLLIYGNSNRPSGVPDRFSGSKSGTSASLAITGLQAEDEADYYCQSYDSSHTVFGGGTQLTVL
# notes: Human, lambda light chain; scFv-Fc or full IgG not clear; also called KW17-Fc
# Assays:
# Experiment in all cases: flow, Jurkat, 100 nM Ab
# Human KLRG1 = target: T1, Human KLRG1
# Human Clec12B = target: T2, Human Clec12B
# Human Clec4E = target: T3, Human Clec4E
# Human CD209 = target: T4, Human CD209
# Human KLRF2 = target: T5, Human KLRF2
# Human Clec9A = target: T7, Human Clec9A (human, UniProt Q6UXN8 1-241)
# T7 construct: also called hClec9A
# T7 sequence (Q6UXN8 whole entry): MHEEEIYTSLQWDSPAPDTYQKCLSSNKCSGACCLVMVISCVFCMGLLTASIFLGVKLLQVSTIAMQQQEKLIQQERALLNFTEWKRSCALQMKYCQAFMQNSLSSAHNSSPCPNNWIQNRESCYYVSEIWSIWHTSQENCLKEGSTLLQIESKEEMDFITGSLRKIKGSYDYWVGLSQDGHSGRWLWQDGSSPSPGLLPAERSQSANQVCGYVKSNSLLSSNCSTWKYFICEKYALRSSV
# cynomolgus CD161 = target: T6, cynomolgus CD161
binder,measurement,setting,value
B1,MFI normalized to WT,Human KLRG1,1.05
same,MFI normalized to WT,Human Clec12B,1.04
same,MFI normalized to WT,Human Clec4E,0.94
same,MFI normalized to WT,Human CD209,0.92
same,MFI normalized to WT,Human KLRF2,1.01
same,MFI normalized to WT,Human Clec9A,1.07
same,MFI normalized to WT,cynomolgus CD161,0.98
